The source of these data is PMC2171675.

The test has as its target neural cell adhesion molecule (NCAM) (mouse (endogenous in brain)) (UniProt P13595). The test is described as follows: co-IP.
UniProt P13595, sequence (P13595 20-1115): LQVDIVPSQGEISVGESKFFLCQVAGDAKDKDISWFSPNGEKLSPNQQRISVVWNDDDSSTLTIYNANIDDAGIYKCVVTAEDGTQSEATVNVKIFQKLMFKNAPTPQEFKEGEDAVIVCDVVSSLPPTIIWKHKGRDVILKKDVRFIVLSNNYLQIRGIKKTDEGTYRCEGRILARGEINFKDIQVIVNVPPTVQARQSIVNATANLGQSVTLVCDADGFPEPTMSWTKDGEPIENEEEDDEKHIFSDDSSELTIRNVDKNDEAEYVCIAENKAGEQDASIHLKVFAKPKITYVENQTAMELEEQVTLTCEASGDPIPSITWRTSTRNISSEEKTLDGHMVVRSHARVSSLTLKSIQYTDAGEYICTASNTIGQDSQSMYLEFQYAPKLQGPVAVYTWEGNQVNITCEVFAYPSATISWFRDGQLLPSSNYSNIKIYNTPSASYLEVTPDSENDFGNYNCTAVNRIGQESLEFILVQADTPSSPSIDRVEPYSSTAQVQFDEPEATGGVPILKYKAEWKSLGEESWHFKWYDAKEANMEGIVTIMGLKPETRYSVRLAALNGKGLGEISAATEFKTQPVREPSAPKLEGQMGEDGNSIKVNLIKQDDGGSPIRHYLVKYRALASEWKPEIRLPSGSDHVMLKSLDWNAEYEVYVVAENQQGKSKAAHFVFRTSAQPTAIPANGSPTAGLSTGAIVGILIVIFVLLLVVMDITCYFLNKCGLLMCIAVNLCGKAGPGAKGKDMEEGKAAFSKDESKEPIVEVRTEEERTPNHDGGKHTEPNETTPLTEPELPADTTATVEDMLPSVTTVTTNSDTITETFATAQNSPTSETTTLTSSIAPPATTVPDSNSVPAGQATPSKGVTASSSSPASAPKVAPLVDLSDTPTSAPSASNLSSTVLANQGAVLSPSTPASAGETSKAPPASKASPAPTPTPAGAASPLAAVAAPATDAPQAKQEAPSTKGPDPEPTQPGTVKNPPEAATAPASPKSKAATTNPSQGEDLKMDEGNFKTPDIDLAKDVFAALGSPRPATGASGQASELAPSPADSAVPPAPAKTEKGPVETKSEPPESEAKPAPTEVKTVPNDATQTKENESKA

Turning to “receptor-like protein tyrosine phosphatase RPTPα (natural protein)”, the reduction of the co-immunoprecipitated complex with 2 mM EDTA against with Ca2+ is 60%.
